B1: Azoarcus group I ribozyme (parent)
chain: GUGCCUUGCGCCGGGAAACCACGCAAGGGAUGGUGUCAAAUUCGGCGAAACCUAAGCGCCCGCCCGGGCGUAUGGCAACGCCGAGCCAAGCUUCGGCGCCUGCGCCGAUGAAGGUGUAGAGACUAGACGGCACCCACCUAAGGCAAACGCUAUGGUGAAGGCAUAGUCCAGGGAGUGGCGAAAGUCACACAAACCGG

In this data set the parent is B1. In words: reverse-splicing fitness (ratio to wild type); higher = more active; in vitro selection; Mg2+ level not given. The method in brief: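 An in vitro group I ribozyme library with randomized positions was T7-transcribed and gel-purified. In triplicate, 10 pmol RNA in EPPS pH 7.5 was reacted with 50 pmoles of a 30-nt RNA substrate for 1 h at 37 °C across several added MgCl2 levels (1–48 mM), then stopped with EDTA. Products were reverse transcribed from a substrate-complementary primer, PCR-amplified and sequenced (HiSeq 4000). Fitness is a variant's read proportion after selection over that before, normalised to wild type.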
As to GUGCCUUGCGCCGGGAAACCACGCAAGGGAUGGUGUCAAAUUCGGCGAAACCUAAGCGCCCGCCCGGGCGUAUGGCAACGCCGAGCCAAGCUUCGGCGCCUGCGCCGAUGUAGGUGUAGAGACUAGACGGCACCCACCUAAGGCGAACGAUAUGGUGAAGGCAUAGUCCAGGGAGCGGCGAAAGUCACACAAACCGG [A111U A145G C150A U176C], the reverse-splicing fitness is 0.299.

GUGCCUUGCGCCGGGAAACCACGCAAGGGAUGGUGUCAAAUUCGGCGAAACCUAAGCGCCCGCCCGGGCGUAUGGCAACGCAGAGCCAAGCUUCGGCGCCUGCGCCGAUGAAGGUGUAGUGACUAGACGGCACCCACCUAAGGCGAACGUUAUGGUGAAGGCAUAGUCAAGGGAGGGGCGAAAGUCACACAAACCGG [C82A A120U A145G C150U C169A U176G]: the reverse-splicing fitness worked out at 0.00195.

Turning to GUGCCUUGCGCCGGGAAACCACGCAAGGGAUGGUGUCAAAUUCGGCGAAACCUAAGCGCCCGCCCGGGCGUAUGGCAACGCAGAGCCAAGCUUCGGCGCCUGCGCCGAUGAAGGUGUAGCGACUAGACGGCACCCACCUAAGGCAAACGUUAUGGUGAAGGCAUAGUCGAGGGAGUGGCGAAAGUCACACAAACCGG [C82A A120C C150U C169G], the reverse-splicing fitness was determined as 0.00925.

Turning to GUGCCUUGCGCCGGGAAACCACGCAAGGGAUGGUGUCAAAUUCGGCGAAACCUAAGCGCCCGCCCGGGCGUAUGGCAACGCAGAGCCAAGCUUCGGCGCCUGCGCCGAUGGAGGUGUAGAGACUAGACGGCACCCACCUAAGGCCAACGAUAUGGUGAAGGCAUAGUCAAGGGAGCGGCGAAAGUCACACAAACCGG [C82A A111G A145C C150A C169A U176C], the reverse-splicing fitness turned out to be 0.00723.

For GUGCCUUGCGCCGGGAAACCACGCAAGGGAUGGUGUCAAAUUCGGCGAAACCUAAGCGCCCGCCCGGGCGUAUGGCAACGCCGAGCCAAGCUUCGGCGCCUGCGCCGAUGCAGGUGUAGAGACUAGACGGCACCCACCUAAGGCUAACGCUAUGGUGAAGGCAUAGUCGAGGGAGGGGCGAAAGUCACACAAACCGG [A111C A145U C169G U176G], the reverse-splicing fitness was found to be 0.00719.

With GUGCCUUGCGCCGGGAAACCACGCAAGGGAUGGUGUCAAAUUCGGCGAAACCUAAGCGCCCGCCCGGGCGUAUGGCAACGCUGAGCCAAGCUUCGGCGCCUGCGCCGAUGCAGGUGUAGGGACUAGACGGCACCCACCUAAGGCUAACGAUAUGGUGAAGGCAUAGUCGAGGGAGGGGCGAAAGUCACACAAACCGG [C82U A111C A120G A145U C150A C169G U176G], the reverse-splicing fitness is 0.00431.

Consider GUGCCUUGCGCCGGGAAACCACGCAAGGGAUGGUGUCAAAUUCGGCGAAACCUAAGCGCCCGCCCGGGCGUAUGGCAACGCGGAGCCAAGCUUCGGCGCCUGCGCCGAUGGAGGUGUAGGGACUAGACGGCACCCACCUAAGGCUAACGCUAUGGUGAAGGCAUAGUCGAGGGAGAGGCGAAAGUCACACAAACCGG [C82G A111G A120G A145U C169G U176A], for which the reverse-splicing fitness was found to be 0.0149.

With GUGCCUUGCGCCGGGAAACCACGCAAGGGAUGGUGUCAAAUUCGGCGAAACCUAAGCGCCCGCCCGGGCGUAUGGCAACGCGGAGCCAAGCUUCGGCGCCUGCGCCGAUGAAGGUGUAGAGACUAGACGGCACCCACCUAAGGCCAACGAUAUGGUGAAGGCAUAGUCCAGGGAGAGGCGAAAGUCACACAAACCGG [C82G A145C C150A U176A], the reverse-splicing fitness was 0.0237.

With GUGCCUUGCGCCGGGAAACCACGCAAGGGAUGGUGUCAAAUUCGGCGAAACCUAAGCGCCCGCCCGGGCGUAUGGCAACGCAGAGCCAAGCUUCGGCGCCUGCGCCGAUGGAGGUGUAGGGACUAGACGGCACCCACCUAAGGCGAACGCUAUGGUGAAGGCAUAGUCUAGGGAGAGGCGAAAGUCACACAAACCGG [C82A A111G A120G A145G C169U U176A], the reverse-splicing fitness came out at 0.019.

Take GUGCCUUGCGCCGGGAAACCACGCAAGGGAUGGUGUCAAAUUCGGCGAAACCUAAGCGCCCGCCCGGGCGUAUGGCAACGCAGAGCCAAGCUUCGGCGCCUGCGCCGAUGCAGGUGUAGCGACUAGACGGCACCCACCUAAGGCUAACGAUAUGGUGAAGGCAUAGUCUAGGGAGGGGCGAAAGUCACACAAACCGG [C82A A111C A120C A145U C150A C169U U176G]: the reverse-splicing fitness worked out at 0.00918.

In the case of GUGCCUUGCGCCGGGAAACCACGCAAGGGAUGGUGUCAAAUUCGGCGAAACCUAAGCGCCCGCCCGGGCGUAUGGCAACGCAGAGCCAAGCUUCGGCGCCUGCGCCGAUGAAGGUGUAGGGACUAGACGGCACCCACCUAAGGCCAACGGUAUGGUGAAGGCAUAGUCUAGGGAGUGGCGAAAGUCACACAAACCGG [C82A A120G A145C C150G C169U], the reverse-splicing fitness amounted to 0.00806.

For GUGCCUUGCGCCGGGAAACCACGCAAGGGAUGGUGUCAAAUUCGGCGAAACCUAAGCGCCCGCCCGGGCGUAUGGCAACGCCGAGCCAAGCUUCGGCGCCUGCGCCGAUGCAGGUGUAGGGACUAGACGGCACCCACCUAAGGCUAACGGUAUGGUGAAGGCAUAGUCUAGGGAGCGGCGAAAGUCACACAAACCGG [A111C A120G A145U C150G C169U U176C], the reverse-splicing fitness worked out at 0.0151.

Consider GUGCCUUGCGCCGGGAAACCACGCAAGGGAUGGUGUCAAAUUCGGCGAAACCUAAGCGCCCGCCCGGGCGUAUGGCAACGCUGAGCCAAGCUUCGGCGCCUGCGCCGAUGGAGGUGUAGCGACUAGACGGCACCCACCUAAGGCCAACGCUAUGGUGAAGGCAUAGUCUAGGGAGCGGCGAAAGUCACACAAACCGG [C82U A111G A120C A145C C169U U176C], for which the reverse-splicing fitness was 0.0107.

With GUGCCUUGCGCCGGGAAACCACGCAAGGGAUGGUGUCAAAUUCGGCGAAACCUAAGCGCCCGCCCGGGCGUAUGGCAACGCCGAGCCAAGCUUCGGCGCCUGCGCCGAUGGAGGUGUAGUGACUAGACGGCACCCACCUAAGGCGAACGCUAUGGUGAAGGCAUAGUCUAGGGAGAGGCGAAAGUCACACAAACCGG [A111G A120U A145G C169U U176A], the reverse-splicing fitness came to 0.0227.

As for GUGCCUUGCGCCGGGAAACCACGCAAGGGAUGGUGUCAAAUUCGGCGAAACCUAAGCGCCCGCCCGGGCGUAUGGCAACGCCGAGCCAAGCUUCGGCGCCUGCGCCGAUGCAGGUGUAGUGACUAGACGGCACCCACCUAAGGCUAACGAUAUGGUGAAGGCAUAGUCCAGGGAGAGGCGAAAGUCACACAAACCGG [A111C A120U A145U C150A U176A], the reverse-splicing fitness amounted to 0.0343.

The values above are taken from the RNAGym collection of RNA variant scans (doi:10.1093/molbev/msab373).
